Measured values published in patent publication US20210253709A1 (SUZHOU SMARTNUCLIDE BIOPHARMACEUTICAL, published 2021).
Each block holds one binder with its values, some of them ahead of it.

What was measured:
PDL1-Fc fusion protein [1] = target: T1, PDL1-Fc fusion protein (human, UniProt Q9NZQ7 19-238, limits assumed); assay: ELISA, plate coated with PDL1-Fc 0.5 ug/well, detection anti-his-HRP, OD405, 4-parameter fit (Plot1; same fit values as in Figure 2)
T1 construct: Transiently expressed in HEK293 and used as the plate coat in the ELISAs; not shown: Fc part
Procedure: (§1) The PDL1-Fc fusion protein was transiently expressed by HEK293 and purified by nickel column affinity chromatography. […] After washing, the anti-his horseradish peroxidase labeled antibody was added and incubated at room temperature for 1 hour. After washing, the developing solution was added, and the absorption value was read at wavelength of 405 nm. Application software SotfMaxPro v5.4 is used for data processing and mapping analysis.

PDL1-Fc fusion protein [2] = target: T1, PDL1-Fc fusion protein; assay: ELISA, plate coated with PDL1-Fc 0.5 ug/well, detection anti-his-HRP, OD405, 4-parameter fit (Plot2)
Procedure: as §1

[3] = target: PD-L1 target protein (Biacore ligand) (UniProt Q9NZQ7 19-238, limits assumed); assay: SPR (Biacore T200), 25 C, 109 as analyte at 3.125-200 ng/ml
Procedure: The experimental temperature of Biacore was 25° C. and the injection flow rate was 50 μl/min. The analyte was diluted with the HBS-EP+ buffer to a certain concentration, and was allowed to flow through the blank reference channel and the activated channel in turn. The signal value generated on the blank reference channel reflects the non-specific adsorption of the analyte on the chip, and the signal value generated on the activated channel reflects the specific binding between the analyte and the ligand. The analyte was introduced for 300 s, and then the HBS-EP+ buffer was introduced for 180 s to dissociate the analyte from the ligand. […] Different concentrations of analytes are repeatedly introduced and dissociated.

PD-L1 target protein (Biacore ligand), sequence (Q9NZQ7 19-238 limits assumed): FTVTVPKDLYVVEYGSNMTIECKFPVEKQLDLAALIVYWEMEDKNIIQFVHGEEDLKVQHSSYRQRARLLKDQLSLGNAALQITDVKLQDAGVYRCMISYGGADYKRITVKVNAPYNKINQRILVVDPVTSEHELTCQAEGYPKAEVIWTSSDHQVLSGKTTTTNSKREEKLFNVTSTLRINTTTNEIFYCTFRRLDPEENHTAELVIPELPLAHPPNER
T1 sequence (Q9NZQ7 19-238 limits assumed): as above

EC50 (PDL1-Fc fusion protein [1]): 2.89 ng/mL
B1: 109-chis (VHH)
VHH: QVQLQESGGGSVQAGGSLRLSCTASGFSLDDSDMGWYRQARGNVCQLVSTIASDRSTYYTPSVKGRFTISHDRAKNTIYLQMNSLKPEDTAVYYCAAAPRLAYTTAMTCEGDFAYWGQGTQVTVSS

EC50 (PDL1-Fc fusion protein [2]): 3.62 ng/mL
B2: ^69,71Ga-NOTA-109-chis (VHH)
VHH: QVQLQESGGGSVQAGGSLRLSCTASGFSLDDSDMGWYRQARGNVCQLVSTIASDRSTYYTPSVKGRFTISHDRAKNTIYLQMNSLKPEDTAVYYCAAAPRLAYTTAMTCEGDFAYWGQGTQVTVSS
modifications: one or two NOTA groups (from p-SCN-Bn-NOTA) conjugated per molecule, each chelating ^69,71Ga; conjugated lysines not assigned
notes: also called chelated products of PD-L1 single domain antibody protein

Kd [3]: 1.73 nM
koff [3]: 0.000438 s⁻¹
kon [3]: 253000 M⁻¹ s⁻¹
B3: 109 heavy-chain single domain antibody (VHH)
VHH: QVQLQESGGGSVQAGGSLRLSCTASGFSLDDSDMGWYRQARGNVCQLVSTIASDRSTYYTPSVKGRFTISHDRAKNTIYLQMNSLKPEDTAVYYCAAAPRLAYTTAMTCEGDFAYWGQGTQVTVSS
notes: Untagged form
